B1: ADX_6077_F02 DG→DA mutant, alkylated (designed binder)
chain: GVSDVPRDLEVVAATPTSLLISWSDDYHAHRYYRITYGETGGNSPVQEFTVPGEHVTATISGLKPGVDYTITVYAVTYDAEKAATDWSISINYRTPC
modifications: C-terminal cysteine alkylated
notes: also called P1-055660
B2: ADX_6077_F02 DG→DL mutant, alkylated (designed binder)
chain: GVSDVPRDLEVVAATPTSLLISWSDDYHAHRYYRITYGETGGNSPVQEFTVPGEHVTATISGLKPGVDYTITVYAVTYDLEKAATDWSISINYRTPC
modifications: C-terminal cysteine alkylated
notes: also called P1-055671
B3: ADX_6077_F02 DG→EG mutant, alkylated (designed binder)
chain: GVSDVPRDLEVVAATPTSLLISWSDDYHAHRYYRITYGETGGNSPVQEFTVPGEHVTATISGLKPGVDYTITVYAVTYEGEKAATDWSISINYRTPC
modifications: C-terminal cysteine alkylated
notes: also called P1-055673
B4: ADX_6077_F02 DG→DV mutant, alkylated (designed binder)
chain: GVSDVPRDLEVVAATPTSLLISWSDDYHAHRYYRITYGETGGNSPVQEFTVPGEHVTATISGLKPGVDYTITVYAVTYDVEKAATDWSISINYRTPC
modifications: C-terminal cysteine alkylated
notes: also called P1-055672
B5: ADX_6077_F02 DG→GG mutant, alkylated (designed binder)
chain: GVSDVPRDLEVVAATPTSLLISWSDDYHAHRYYRITYGETGGNSPVQEFTVPGEHVTATISGLKPGVDYTITVYAVTYGGEKAATDWSISINYRTPC
modifications: C-terminal cysteine alkylated
notes: also called P1-055670
B6: ADX_6077_F02 DG→AG mutant, alkylated (designed binder)
chain: GVSDVPRDLEVVAATPTSLLISWSDDYHAHRYYRITYGETGGNSPVQEFTVPGEHVTATISGLKPGVDYTITVYAVTYAGEKAATDWSISINYRTPC
modifications: C-terminal cysteine alkylated
notes: also called P1-055669
B7: ADX_6077_F02 DG→DS mutant, alkylated (designed binder)
chain: GVSDVPRDLEVVAATPTSLLISWSDDYHAHRYYRITYGETGGNSPVQEFTVPGEHVTATISGLKPGVDYTITVYAVTYDSEKAATDWSISINYRTPC
modifications: C-terminal cysteine alkylated
notes: also called P1-055667
B8: ADX_6077_F02 DG→SG mutant, alkylated (designed binder)
chain: VSDVPRDLEVVAATPTSLLISWSDDYHAHRYYRITYGETGGNSPVQEFTVPGEHVTATISGLKPGVDYTITVYAVTYSGEKAATDWSISINYRTPC
modifications: C-terminal cysteine alkylated
notes: also called P1-055668

How the values were obtained:
[1] = molecular target: T1, Recombinant murine glypican-3 (aa 25-557) (R&D Systems) (murine, UniProt Q8CFZ4 25-557); assay: SPR 1-point off-rate, ratio to parental ADX_6077_F02
T1 construct: also called muGPC3; murine GPC3
Procedure: (§1) Surface plasmon resonance (SPR) was performed to calculate off-rates (kd) and binding affinities of α-GPC3 adnectins and tubulysin-conjugated AdxDCs using a Biacore T100 instrument (GE Healthcare). […] SPR experiments were conducted at 37° C. using HBS-P+(10 mM HEPES, 150 mM NaCl, 0.05% (v/v) Surfactant P20, pH 7.4) running buffer (GE Healthcare). […] For off-rate measurements, single 200 nM adnectin/AdxDC concentrations were injected using identical conditions. One 30s injection of 10 mM glycine pH 1.7 was used to remove bound adnectin and regenerate the GPC₃ surfaces between assay cycles.
(§2) Rate constants kₐ (kₒₙ) and kd (koff) were derived from reference-subtracted sensorgrams fit to a 1:1 binding model in Biacore T100 Evaluation Software v2.0.4 (GE Healthcare). The affinity constant, KD was calculated from the ratio of rate constants kd/kₐ.
(§3) One-hundred to one-hundred-fifty milligrams of each of the eight mutants was made, purified and alkylated as previously above. Three to five milligrams of each of eight alkylated variants at 1-3 mg/mL were subjected to SEC, DSC, GPC3 binding (SPR 1 pt off-rates), MS and HIC.

[2] = molecular target: T2, Recombinant human glypican-3 (aa 1-559), His-tagged (R&D Systems) (human, UniProt P51654 25-559); assay: as above
T2 construct: also called huGPC3; human GPC3
Procedure: as §1, §2, §3

[3] = molecular target: T3, Human glypican-3 on cells (Huh7, Hep3B, H446, HepG2; Hep3B xenograft tissue) (human, UniProt P51654 25-554); assay: flow cytometry on Huh7 cells, EC50 ratio to parent Adnectin
T3 construct: Endogenous GPC3 of human tumor cell lines; also called huGPC3 on cells; GPC3 receptor
Procedure: The binding of DG variants to huGPC3 in DG GPC3 AdxDCs mutants were evaluated by flow cytometry for binding to Huh7 carcinoma cells grown in DMEM media with 10% FBS. Cells were harvested using Versene, an EDTA cell dissociation solution from Lonza, Cat. #17-711E. Tumor cells (1E5 cells/reaction) were suspended in FACS buffer (PBS, 1% BSA, 0.05% Na Azide) and mixed with a serial dilution of AdxDC for one hour on ice. Cells were washed three times with FACS buffer, and bound AdxDC was detected with an in house anti-scaffold monoclonal Ab and PE-conjugated Antibody from (RnD Systems), cat#NL007, and read on a flow cytometer.

T1 sequence (Q8CFZ4 25-557 limits assumed, form in doubt): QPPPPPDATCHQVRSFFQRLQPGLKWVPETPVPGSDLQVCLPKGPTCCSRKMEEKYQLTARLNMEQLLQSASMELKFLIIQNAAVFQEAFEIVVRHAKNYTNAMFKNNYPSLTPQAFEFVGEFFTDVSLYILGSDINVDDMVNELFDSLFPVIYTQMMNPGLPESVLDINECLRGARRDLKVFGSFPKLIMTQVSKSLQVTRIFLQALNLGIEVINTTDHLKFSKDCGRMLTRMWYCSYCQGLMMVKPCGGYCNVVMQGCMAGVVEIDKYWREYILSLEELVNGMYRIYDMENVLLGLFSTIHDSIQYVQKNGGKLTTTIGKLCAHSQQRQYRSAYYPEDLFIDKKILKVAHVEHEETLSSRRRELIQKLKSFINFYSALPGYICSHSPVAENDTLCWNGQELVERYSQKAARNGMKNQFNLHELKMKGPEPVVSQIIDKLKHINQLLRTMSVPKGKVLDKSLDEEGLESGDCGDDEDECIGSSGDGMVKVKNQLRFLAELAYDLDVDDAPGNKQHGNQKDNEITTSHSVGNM
T2 sequence (P51654 other isoform, or with tags, fused parts or gaps): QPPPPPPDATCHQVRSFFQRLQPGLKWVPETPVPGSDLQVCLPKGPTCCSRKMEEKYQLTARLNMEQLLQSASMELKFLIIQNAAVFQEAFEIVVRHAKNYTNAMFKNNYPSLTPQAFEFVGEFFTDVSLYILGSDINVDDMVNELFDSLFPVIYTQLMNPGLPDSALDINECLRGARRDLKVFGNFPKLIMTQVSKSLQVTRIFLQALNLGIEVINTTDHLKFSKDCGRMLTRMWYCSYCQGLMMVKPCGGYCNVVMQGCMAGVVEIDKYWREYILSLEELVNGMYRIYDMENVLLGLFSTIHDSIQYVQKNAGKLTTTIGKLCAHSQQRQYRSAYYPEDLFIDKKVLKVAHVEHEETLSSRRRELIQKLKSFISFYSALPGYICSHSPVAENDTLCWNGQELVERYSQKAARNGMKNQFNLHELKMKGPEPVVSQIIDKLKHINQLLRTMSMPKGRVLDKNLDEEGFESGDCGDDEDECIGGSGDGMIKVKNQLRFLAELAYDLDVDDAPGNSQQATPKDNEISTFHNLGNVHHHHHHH
T3 sequence (P51654 25-554 limits assumed): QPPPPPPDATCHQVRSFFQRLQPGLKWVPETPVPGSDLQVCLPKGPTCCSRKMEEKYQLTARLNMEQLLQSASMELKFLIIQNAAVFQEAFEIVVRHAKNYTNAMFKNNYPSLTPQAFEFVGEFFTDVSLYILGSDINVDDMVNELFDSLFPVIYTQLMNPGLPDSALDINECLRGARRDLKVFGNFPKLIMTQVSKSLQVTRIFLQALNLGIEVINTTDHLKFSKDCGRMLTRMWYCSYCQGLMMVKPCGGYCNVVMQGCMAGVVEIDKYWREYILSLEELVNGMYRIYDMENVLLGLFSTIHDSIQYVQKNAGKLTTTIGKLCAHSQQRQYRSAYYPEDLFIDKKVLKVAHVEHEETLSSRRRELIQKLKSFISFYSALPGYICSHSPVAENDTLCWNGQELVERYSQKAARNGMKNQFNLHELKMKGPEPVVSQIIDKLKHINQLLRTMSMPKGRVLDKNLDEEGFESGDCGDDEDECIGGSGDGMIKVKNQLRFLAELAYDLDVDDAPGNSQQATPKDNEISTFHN

Row | Binder | muGPC3 koff (mut/par) [1] [ratio mutant/parent] | huGPC3 koff (mut/par) [2] [ratio mutant/parent] | huGPC3 on cells EC50 (mutant/parent) [3] [ratio mutant/parent]
1 | B1 | 3.7 | 3.9 | 1.3
2 | B2 | 3.1 | 3.6 | 1.7
3 | B3 | 5.1 | 5.4 | 1.6
4 | B4 | 7 | 7.9 | –
5 | B5 | 12 | 14 | –
6 | B6 | 5.5 | 5.9 | 1.1
7 | B7 | 3.3 | 3.5 | 1.4
8 | B8 | 4.8 | 5.2 | 1.1

Source: patent US20190077844A1 (published 2019)
